Values of other authors in publication PMC4457300.

Target: MLL MBM1 4-15 (Homo sapiens) (UniProt Q03164)

Kd: 56 nM
Substance: menin (from UniProt O00255)
